Experimental data as given in US7727960B2, “C5a receptor antagonists” (Jerini AG, priority 2003, dated 2010).
Starred links: 1 amine or outer side, 2 acyl side, 3 side chain; linkers in the order of their positions; H or OH if unused. Positions of bridges follow the written chain, without caps; N, C: chain ends. Non-standard residues stand in square brackets, D forms with d. No end group written: not given here. *: point of attachment. Ecp = His(tau-4-methoxybenzyl), COc1ccc(Cn2cnc(C[C@H](N[*:1])C(=O)[*:2])c2)cc1; Edn = Cys(CH2-CH2-4-pyridyl), O=C([C@H](CSCCc1ccncc1)N[*:1])[*:2]; Fck = HO-CH2-(CHOH)4-C=N-O-CH2-CO- (oxime-linked sugar acyl cap); Ebo = Cys(4-picolyl), O=C([C@H](CSCc1ccncc1)N[*:1])[*:2]; Ebu = Cys(3-picolyl), O=C([C@H](CSCc1cccnc1)N[*:1])[*:2]; Ecg = Cys(2-picolyl), O=C([C@H](CSCc1ccccn1)N[*:1])[*:2]; Phe(F5) = N[C@@H](Cc1c(F)c(F)c(F)c(F)c1F)C(=O)O; Phe(4-tBu) = CC(C)(C)c1ccc(C[C@H](N)C(=O)O)cc1; XX1 = 2-Amino-3-(4-piperidinyl)propionic acid; Fbo = morpholine-4-carbonyl, O=C(N1CCOCC1)*; 1Nal = N[C@@H](Cc1cccc2ccccc12)C(=O)O; 2Nal = N[C@@H](Cc1ccc2ccccc2c1)C(=O)O; XX2 = 4-guanidyl-piperidinyl-alanine; d(hLeu) = CC(C)CC[C@@H](N)C(=O)O; hCit = NC(=O)NCCCC[C@H](N)C(=O)O; αMeF = C[C@](N)(Cc1ccccc1)C(=O)O; 4Pal = N[C@@H](Cc1ccncc1)C(=O)O; 2Thi = N[C@@H](Cc1cccs1)C(=O)O; Cha = N[C@@H](CC1CCCCC1)C(=O)O; dCha = N[C@H](CC1CCCCC1)C(=O)O; dChg = N[C@@H](C(=O)O)C1CCCCC1; Phg = N[C@H](C(=O)O)c1ccccc1; Nle = CCCC[C@H](N)C(=O)O; Orn = NCCC[C@H](N)C(=O)O; Aze = O=C(O)[C@@H]1CCN1; Dab = NCC[C@H](N)C(=O)O; Ecf = Cys(O-3-picolyl); Fbn = not defined here

T1: human C5aR (CD88) (human, UniProt P21730 1-350)
T1 sequence (looked up): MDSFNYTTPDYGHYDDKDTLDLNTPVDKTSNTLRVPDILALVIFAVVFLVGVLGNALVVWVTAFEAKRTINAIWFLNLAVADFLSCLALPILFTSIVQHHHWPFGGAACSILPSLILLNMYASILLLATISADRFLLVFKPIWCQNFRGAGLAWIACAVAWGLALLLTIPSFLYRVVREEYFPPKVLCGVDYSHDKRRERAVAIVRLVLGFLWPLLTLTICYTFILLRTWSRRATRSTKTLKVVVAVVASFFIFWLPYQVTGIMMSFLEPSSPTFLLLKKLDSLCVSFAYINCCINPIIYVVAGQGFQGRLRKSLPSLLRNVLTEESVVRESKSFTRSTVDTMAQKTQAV


The molecules below were run against T1, human C5aR (CD88) (assay: cell-based or functional assay).

Molecule | IC50 activity group, enzyme release assay [nM] | EC50, agonistic activity, enzyme release assay [nM]
Ac-Phe-Orn-Pro-hle-Mff-Phe-NH2 (peptide) | < 200 | –
Ac-Phe-Har-Pro-cha-Bta-Phe-NH2 (peptide) | < 50 | –
Ac-Ebw-Orn-Pro-cha-Trp-Phe-NH2 (peptide) | < 200 | > 100000
Ac-Gly-Phe-Orn-Aze-hch-Bta-Phe-NH2 (peptide) | < 200 | –
Ac-Thi-Orn-Aze-cha-Bta-Phe-NH2 (peptide) | < 20 | –
Ac-Phe-Orn-Pro-cha-Bta-2Ni-NH2 (peptide) | < 50 | –
Ac-Ala-Phe-Orn-Aze-cha-Bta-Phe-NH2 (peptide) | < 50 | –
CH3-SO2-Phe-Orn-Aze-cha-Bta-Phe-NH2 (peptide) | < 50 | –

Biological target: T1, human C5aR (CD88)
Experiment: cell-based or functional assay
Remark: another data set of the same source

IC50 activity group, enzyme release assay [nM] | Molecule
≤ 200 | Fbn-F[Orn]P[dCha]W[Nle] (lactam 2-C; reading uncertain; also: printed as Fbn-Phe-[Orn-Pro-cha-Trp-Nle]) [Fbn-Phe-[Orn-Pro-cha-Trp-Nle]]
≤ 200 | Fbo-F[Orn]P[dCha]W[Nle] (lactam 2-C (inferred)) [Fbo-Phe-[Orn-Pro-cha-Trp-Nle]]
≤ 200 | Fck-F[Orn]P[dCha]W[Nle] (bridge (positions not given here); not fully specified; printed as Fck-[Phe-Orn-Pro-cha-Trp-Nle]; also: cyclic [1-6], linkage not given here) [Fck-[Phe-Orn-Pro-cha-Trp-Nle]]
≤ 200 | Fck-F[Orn]P[dCha]W[Nle] (lactam 2-C (inferred)) [Fck-Phe-[Orn-Pro-cha-Trp-Nle]]
≤ 2000 | FXPXWX (not fully specified; Ac-; Orn2; cha4 (D); Eew6; cyclic [2-6]) [Ac-Phe-[Orn-Pro-cha-Trp-Eew]]
≤ 2000 | Ac-F[Orn]P[dCha]W[hCit] (lactam (positions not given here); not fully specified (bridges); printed as Ac-Phe-[Orn-Pro-cha-Trp-Hci]) [Ac-Phe-[Orn-Pro-cha-Trp-Hci]]
≤ 200 | H-F[Orn]P[dCha]W[Nle] (lactam 2-C) [H-Phe-[Orn-Pro-cha-Trp-Nle]]
≤ 50 | H-F[Orn]P[d(hLeu)]W[Nle] (lactam 2-C) [H-Phe-[Orn-Pro-hle-Trp-Nle]]
≤ 50 | H-F[Orn]S[dCha]WF (lactam 2-C; SMILES N[C@@H](Cc1ccccc1)C(=O)N[C@H]1CCCNC(=O)[C@H](Cc2ccccc2)NC(=O)[C@H](Cc2c[nH]c3ccccc23)NC(=O)[C@@H](CC2CCCCC2)NC(=O)[C@H](CO)NC1=O) [H-Phe-[Orn-Ser-cha-Trp-Phe]]
≤ 2000 | {Ph2‑CH‑CH2‑CO}-[Orn]P[dCha]WF-NH2 [Ph2-CH-CH2-CO-Orn-Pro-cha-Trp-Phe-NH2]
≤ 2000 | Ac-F[Orn]P[dCha]W[Edn] (lactam (positions not given here); not fully specified (bridges); printed as Ac-Phe-[Orn-Pro-cha-Trp-Edn]) [Ac-Phe-[Orn-Pro-cha-Trp-Edn]]
≤ 2000 | Ac-F[Orn]P[dCha]W[Phe(4-Amidin)] (lactam (positions not given here); not fully specified (bridges); printed as Ac-Phe-[Orn-Pro-cha-Trp-Phe(4-Amidin)]) [Ac-Phe-[Orn-Pro-cha-Trp-Phe(4-Amidin)]]
≤ 200 | Ac-F[Orn]P[dCha]W[4Pal] (lactam (positions not given here); not fully specified (bridges); printed as Ac-Phe-[Orn-Pro-cha-Trp-Ppa]) [Ac-Phe-[Orn-Pro-cha-Trp-Ppa]]
> 2000 | Ac-F[Orn]P[dCha]W[XX1] (lactam (positions not given here); not fully specified (bridges); printed as Ac-Phe-[Orn-Pro-cha-Trp-XX1]) [Ac-Phe-[Orn-Pro-cha-Trp-XX1]]
≤ 200 | Ac-F[Orn]P[dCha]WM (lactam (positions not given here); not fully specified (bridges); printed as Ac-Phe-[Orn-Pro-cha-Trp-Met]) [Ac-Phe-[Orn-Pro-cha-Trp-Met]]
> 2000 | Ac-F[Orn]P[dCha]W[XX2] (lactam (positions not given here); not fully specified (bridges); printed as Ac-Phe-[Orn-Pro-cha-Trp-XX2]) [Ac-Phe-[Orn-Pro-cha-Trp-XX2]]

The next lines start with the molecule.

Molecule | IC50 activity group, enzyme release assay [nM]
H-[αMeF][Orn][Aze][d(hLeu)][Phe(F5)][Nle] (lactam 2-C; SMILES CCCC[C@@H]1NC(=O)[C@H](Cc2c(F)c(F)c(F)c(F)c2F)NC(=O)[C@@H](CCC(C)C)NC(=O)[C@@H]2CCN2C(=O)[C@@H](NC(=O)[C@@](C)(N)Cc2ccccc2)CCCNC1=O) [H-Amf-[Orn-Aze-hle-Pff-Nle]] | ≤ 200
Ac-F[Orn]P[dCha]W[Ebo] (lactam (positions not given here); not fully specified (bridges); printed as Ac-Phe-[Orn-Pro-cha-Trp-Ebo]) [Ac-Phe-[Orn-Pro-cha-Trp-Ebo]] | ≤ 2000
Ac-F[Orn]P[dCha]W[Ecf] (lactam (positions not given here); not fully specified (bridges); printed as Ac-Phe-[Orn-Pro-cha-Trp-Ecf]) [Ac-Phe-[Orn-Pro-cha-Trp-Ecf]] | ≤ 2000
Ac-F[Orn]P[dCha]W[2Nal]-NH2 [Ac-Phe-Orn-Pro-cha-Trp-2Ni-NH2] | ≤ 50
Ac-F[Orn]P[dCha]W[Cha]-NH2 [Ac-Phe-Orn-Pro-cha-Trp-Cha-NH2] | ≤ 200
Ac-F[Orn]P[dCha]W[Phe(4-tBu)]-NH2 [Ac-Phe-Orn-Pro-cha-Trp-Eap-NH2] | ≤ 2000
Ac-F[Orn]P[dCha]W[Ebu] (lactam (positions not given here); not fully specified (bridges); printed as Ac-Phe-[Orn-Pro-cha-Trp-Ebu]) [Ac-Phe-[Orn-Pro-cha-Trp-Ebu]] | ≤ 2000
Ac-F[Orn]P[dCha]W-{NH‑CH2‑CH2‑Ph} [Ac-Phe-Orn-Pro-cha-Trp-NH-CH2-CH2-Ph] | ≤ 2000
Ac-F[Orn]P[dCha]W[Ecg] (lactam (positions not given here); not fully specified (bridges); printed as Ac-Phe-[Orn-Pro-cha-Trp-Ecg]) [Ac-Phe-[Orn-Pro-cha-Trp-Ecg]] | ≤ 2000
Ac-F[Orn]P[dCha]W[2Thi]-NH2 [Ac-Phe-Orn-Pro-cha-Trp-Thi-NH2] | ≤ 200
Ac-F[Orn]P[dCha]W[1Nal]-NH2 [Ac-Phe-Orn-Pro-cha-Trp-1Ni-NH2] | ≤ 50
Ac-F[Orn]P[dCha]W[Phg]-NH2 [Ac-Phe-Orn-Pro-cha-Trp-Phg-NH2] | ≤ 2000
Ac-F[Orn]S[dCha]WF-OH (SMILES CC(=O)N[C@@H](Cc1ccccc1)C(=O)N[C@@H](CCCN)C(=O)N[C@@H](CO)C(=O)N[C@H](CC1CCCCC1)C(=O)N[C@@H](Cc1c[nH]c2ccccc12)C(=O)N[C@@H](Cc1ccccc1)C(=O)O) [Ac-Phe-Orn-Ser-cha-Trp-Phe-OH] | ≤ 2000
Ac-F[Orn]P[dChg]WF-OH [Ac-Phe-Orn-Pro-chg-Trp-Phe-OH] | ≤ 2000
Ac-F[Orn]P[dHch]WF-OH [Ac-Phe-Orn-Pro-hch-Trp-Phe-OH] | ≤ 200
FXPXWR (not fully specified; Ac-; Orn2; cha4 (D); Arg(Me2)6; cyclic [2-6]) [Ac-Phe-[Orn-Pro-cha-Trp-Arg(Me2)]] | ≤ 200
Ac-F[Orn]P[dCha]W[Dab] (lactam (positions not given here); not fully specified (bridges); printed as Ac-Phe-[Orn-Pro-cha-Trp-Dab]) [Ac-Phe-[Orn-Pro-cha-Trp-Dab]] | ≤ 200
Ac-F[Orn]P[dCha]W[Ecp] (lactam (positions not given here); not fully specified (bridges); printed as Ac-Phe-[Orn-Pro-cha-Trp-Ecp]) [Ac-Phe-[Orn-Pro-cha-Trp-Ecp]] | ≤ 2000
